Data published in EP4578875A1.

molecular target: CD3 (antibody antigen coated on the ELISA plate in Examples 1 to 3) (Homo sapiens (Human)) (UniProt P07766); experiment: ELISA, antigen coated, anti-human IgG-HRP; against wild-type anti-CD3 antibody
Sequence (P07766 23-126 limits assumed): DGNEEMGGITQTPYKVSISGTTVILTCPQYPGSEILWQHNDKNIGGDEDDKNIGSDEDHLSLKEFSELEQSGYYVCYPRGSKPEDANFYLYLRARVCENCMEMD

Binder	Binding strength of mutants (EC50 mutant/EC50 wild-type)
anti-CD3 antibody mutant VH-M34C (antibody, V domains shown) VH: EVQLVESGGGLVQPGGSLRLSCAASGFTFSTYACNWVRQAPGKGLEWVGRIRSKYNNYATYYADSVKDRFTISRDDSKNSLYLQMNSLKTEDTAVYYCARHGNFGNSYVSWFAYWGQGTLVTVSS VL: QTVVTQEPSLTVSPGGTVTLTCRSSTGAVTTSNYANWVQQKPGQAPRGLIGGTNKRAPGVPARFSGSLLGDKAALTLLGAQPEDEAEYFCALWYSNLWVFGGGTKLTVL	1.1
anti-CD3 antibody mutant VL-R56C (antibody, V domains shown) VH: EVQLVESGGGLVQPGGSLRLSCAASGFTFSTYAMNWVRQAPGKGLEWVGRIRSKYNNYATYYADSVKDRFTISRDDSKNSLYLQMNSLKTEDTAVYYCARHGNFGNSYVSWFAYWGQGTLVTVSS VL: QTVVTQEPSLTVSPGGTVTLTCRSSTGAVTTSNYANWVQQKPGQAPRGLIGGTNKCAPGVPARFSGSLLGDKAALTLLGAQPEDEAEYFCALWYSNLWVFGGGTKLTVL	1.5
anti-CD3 antibody mutant VL-Y94C (antibody, V domains shown) VH: EVQLVESGGGLVQPGGSLRLSCAASGFTFSTYAMNWVRQAPGKGLEWVGRIRSKYNNYATYYADSVKDRFTISRDDSKNSLYLQMNSLKTEDTAVYYCARHGNFGNSYVSWFAYWGQGTLVTVSS VL: QTVVTQEPSLTVSPGGTVTLTCRSSTGAVTTSNYANWVQQKPGQAPRGLIGGTNKRAPGVPARFSGSLLGDKAALTLLGAQPEDEAEYFCALWCSNLWVFGGGTKLTVL	1
anti-CD3 antibody mutant VH-Y61C (antibody, V domains shown) VH: EVQLVESGGGLVQPGGSLRLSCAASGFTFSTYAMNWVRQAPGKGLEWVGRIRSKYNNYATCYADSVKDRFTISRDDSKNSLYLQMNSLKTEDTAVYYCARHGNFGNSYVSWFAYWGQGTLVTVSS VL: QTVVTQEPSLTVSPGGTVTLTCRSSTGAVTTSNYANWVQQKPGQAPRGLIGGTNKRAPGVPARFSGSLLGDKAALTLLGAQPEDEAEYFCALWYSNLWVFGGGTKLTVL	5.1
anti-CD3 antibody mutant VL-Y34C (antibody, V domains shown) VH: EVQLVESGGGLVQPGGSLRLSCAASGFTFSTYAMNWVRQAPGKGLEWVGRIRSKYNNYATYYADSVKDRFTISRDDSKNSLYLQMNSLKTEDTAVYYCARHGNFGNSYVSWFAYWGQGTLVTVSS VL: QTVVTQEPSLTVSPGGTVTLTCRSSTGAVTTSNCANWVQQKPGQAPRGLIGGTNKRAPGVPARFSGSLLGDKAALTLLGAQPEDEAEYFCALWYSNLWVFGGGTKLTVL	1.2
anti-CD3 antibody mutant VL-N54C (antibody, V domains shown) VH: EVQLVESGGGLVQPGGSLRLSCAASGFTFSTYAMNWVRQAPGKGLEWVGRIRSKYNNYATYYADSVKDRFTISRDDSKNSLYLQMNSLKTEDTAVYYCARHGNFGNSYVSWFAYWGQGTLVTVSS VL: QTVVTQEPSLTVSPGGTVTLTCRSSTGAVTTSNYANWVQQKPGQAPRGLIGGTCKRAPGVPARFSGSLLGDKAALTLLGAQPEDEAEYFCALWYSNLWVFGGGTKLTVL	1
anti-CD3 antibody mutant VL-W93C (antibody, V domains shown) VH: EVQLVESGGGLVQPGGSLRLSCAASGFTFSTYAMNWVRQAPGKGLEWVGRIRSKYNNYATYYADSVKDRFTISRDDSKNSLYLQMNSLKTEDTAVYYCARHGNFGNSYVSWFAYWGQGTLVTVSS VL: QTVVTQEPSLTVSPGGTVTLTCRSSTGAVTTSNYANWVQQKPGQAPRGLIGGTNKRAPGVPARFSGSLLGDKAALTLLGAQPEDEAEYFCALCYSNLWVFGGGTKLTVL	1.8
anti-CD3 antibody mutant VL-K55C (antibody, V domains shown) VH: EVQLVESGGGLVQPGGSLRLSCAASGFTFSTYAMNWVRQAPGKGLEWVGRIRSKYNNYATYYADSVKDRFTISRDDSKNSLYLQMNSLKTEDTAVYYCARHGNFGNSYVSWFAYWGQGTLVTVSS VL: QTVVTQEPSLTVSPGGTVTLTCRSSTGAVTTSNYANWVQQKPGQAPRGLIGGTNCRAPGVPARFSGSLLGDKAALTLLGAQPEDEAEYFCALWYSNLWVFGGGTKLTVL	0.9
anti-CD3 antibody mutant VH-W111C (antibody, V domains shown) VH: EVQLVESGGGLVQPGGSLRLSCAASGFTFSTYAMNWVRQAPGKGLEWVGRIRSKYNNYATYYADSVKDRFTISRDDSKNSLYLQMNSLKTEDTAVYYCARHGNFGNSYVSCFAYWGQGTLVTVSS VL: QTVVTQEPSLTVSPGGTVTLTCRSSTGAVTTSNYANWVQQKPGQAPRGLIGGTNKRAPGVPARFSGSLLGDKAALTLLGAQPEDEAEYFCALWYSNLWVFGGGTKLTVL	2
anti-CD3 antibody mutant VH-S53C (antibody, V domains shown) VH: EVQLVESGGGLVQPGGSLRLSCAASGFTFSTYAMNWVRQAPGKGLEWVGRIRCKYNNYATYYADSVKDRFTISRDDSKNSLYLQMNSLKTEDTAVYYCARHGNFGNSYVSWFAYWGQGTLVTVSS VL: QTVVTQEPSLTVSPGGTVTLTCRSSTGAVTTSNYANWVQQKPGQAPRGLIGGTNKRAPGVPARFSGSLLGDKAALTLLGAQPEDEAEYFCALWYSNLWVFGGGTKLTVL	1.2
anti-CD3 antibody mutant VH-F104C (antibody, V domains shown) VH: EVQLVESGGGLVQPGGSLRLSCAASGFTFSTYAMNWVRQAPGKGLEWVGRIRSKYNNYATYYADSVKDRFTISRDDSKNSLYLQMNSLKTEDTAVYYCARHGNCGNSYVSWFAYWGQGTLVTVSS VL: QTVVTQEPSLTVSPGGTVTLTCRSSTGAVTTSNYANWVQQKPGQAPRGLIGGTNKRAPGVPARFSGSLLGDKAALTLLGAQPEDEAEYFCALWYSNLWVFGGGTKLTVL	1
anti-CD3 antibody mutant VL-N96C (antibody, V domains shown) VH: EVQLVESGGGLVQPGGSLRLSCAASGFTFSTYAMNWVRQAPGKGLEWVGRIRSKYNNYATYYADSVKDRFTISRDDSKNSLYLQMNSLKTEDTAVYYCARHGNFGNSYVSWFAYWGQGTLVTVSS VL: QTVVTQEPSLTVSPGGTVTLTCRSSTGAVTTSNYANWVQQKPGQAPRGLIGGTNKRAPGVPARFSGSLLGDKAALTLLGAQPEDEAEYFCALWYSCLWVFGGGTKLTVL	1

molecular target: CD3 (antibody antigen coated on the ELISA plate in Examples 1 to 3) (Homo sapiens (Human)) (UniProt P07766); experiment: binding activity of the conjugated mutant compared with the wild-type antibody (ELISA as in Example 1)

Binder	Blocking fold after conjugation (+20K) [fold]
anti-CD3 antibody mutant VL-R56C conjugated with Molecule I (+20K) (antibody, V domains shown, Molecule I (+20K, shown only as a drawing) conjugated on Cys 56) VH: EVQLVESGGGLVQPGGSLRLSCAASGFTFSTYAMNWVRQAPGKGLEWVGRIRSKYNNYATYYADSVKDRFTISRDDSKNSLYLQMNSLKTEDTAVYYCARHGNFGNSYVSWFAYWGQGTLVTVSS VL: QTVVTQEPSLTVSPGGTVTLTCRSSTGAVTTSNYANWVQQKPGQAPRGLIGGTNKCAPGVPARFSGSLLGDKAALTLLGAQPEDEAEYFCALWYSNLWVFGGGTKLTVL	6
anti-CD3 antibody mutant VH-S53C conjugated with Molecule I (+20K) (antibody, V domains shown, Molecule I (+20K, shown only as a drawing) conjugated on Cys 53) VH: EVQLVESGGGLVQPGGSLRLSCAASGFTFSTYAMNWVRQAPGKGLEWVGRIRCKYNNYATYYADSVKDRFTISRDDSKNSLYLQMNSLKTEDTAVYYCARHGNFGNSYVSWFAYWGQGTLVTVSS VL: QTVVTQEPSLTVSPGGTVTLTCRSSTGAVTTSNYANWVQQKPGQAPRGLIGGTNKRAPGVPARFSGSLLGDKAALTLLGAQPEDEAEYFCALWYSNLWVFGGGTKLTVL	3
anti-CD3 antibody mutant VH-M34C conjugated with Molecule I (+20K) (antibody, V domains shown, Molecule I (+20K, shown only as a drawing) conjugated on Cys 34) VH: EVQLVESGGGLVQPGGSLRLSCAASGFTFSTYACNWVRQAPGKGLEWVGRIRSKYNNYATYYADSVKDRFTISRDDSKNSLYLQMNSLKTEDTAVYYCARHGNFGNSYVSWFAYWGQGTLVTVSS VL: QTVVTQEPSLTVSPGGTVTLTCRSSTGAVTTSNYANWVQQKPGQAPRGLIGGTNKRAPGVPARFSGSLLGDKAALTLLGAQPEDEAEYFCALWYSNLWVFGGGTKLTVL	5
anti-CD3 antibody mutant VL-K55C conjugated with Molecule I (+20K) (antibody, V domains shown, Molecule I (+20K, shown only as a drawing) conjugated on Cys 55) VH: EVQLVESGGGLVQPGGSLRLSCAASGFTFSTYAMNWVRQAPGKGLEWVGRIRSKYNNYATYYADSVKDRFTISRDDSKNSLYLQMNSLKTEDTAVYYCARHGNFGNSYVSWFAYWGQGTLVTVSS VL: QTVVTQEPSLTVSPGGTVTLTCRSSTGAVTTSNYANWVQQKPGQAPRGLIGGTNCRAPGVPARFSGSLLGDKAALTLLGAQPEDEAEYFCALWYSNLWVFGGGTKLTVL	5
anti-CD3 antibody mutant VH-F104C conjugated with Molecule I (+20K) (antibody, V domains shown, Molecule I (+20K, shown only as a drawing) conjugated on Cys 104) VH: EVQLVESGGGLVQPGGSLRLSCAASGFTFSTYAMNWVRQAPGKGLEWVGRIRSKYNNYATYYADSVKDRFTISRDDSKNSLYLQMNSLKTEDTAVYYCARHGNCGNSYVSWFAYWGQGTLVTVSS VL: QTVVTQEPSLTVSPGGTVTLTCRSSTGAVTTSNYANWVQQKPGQAPRGLIGGTNKRAPGVPARFSGSLLGDKAALTLLGAQPEDEAEYFCALWYSNLWVFGGGTKLTVL	13
anti-CD3 antibody mutant VL-Y34C conjugated with Molecule I (+20K) (antibody, V domains shown, Molecule I (+20K, shown only as a drawing) conjugated on Cys 34) VH: EVQLVESGGGLVQPGGSLRLSCAASGFTFSTYAMNWVRQAPGKGLEWVGRIRSKYNNYATYYADSVKDRFTISRDDSKNSLYLQMNSLKTEDTAVYYCARHGNFGNSYVSWFAYWGQGTLVTVSS VL: QTVVTQEPSLTVSPGGTVTLTCRSSTGAVTTSNCANWVQQKPGQAPRGLIGGTNKRAPGVPARFSGSLLGDKAALTLLGAQPEDEAEYFCALWYSNLWVFGGGTKLTVL	8
anti-CD3 antibody mutant VH-W111C conjugated with Molecule I (+20K) (antibody, V domains shown, Molecule I (+20K, shown only as a drawing) conjugated on Cys 111) VH: EVQLVESGGGLVQPGGSLRLSCAASGFTFSTYAMNWVRQAPGKGLEWVGRIRSKYNNYATYYADSVKDRFTISRDDSKNSLYLQMNSLKTEDTAVYYCARHGNFGNSYVSCFAYWGQGTLVTVSS VL: QTVVTQEPSLTVSPGGTVTLTCRSSTGAVTTSNYANWVQQKPGQAPRGLIGGTNKRAPGVPARFSGSLLGDKAALTLLGAQPEDEAEYFCALWYSNLWVFGGGTKLTVL	6
anti-CD3 antibody mutant VL-N54C conjugated with Molecule I (+20K) (antibody, V domains shown, Molecule I (+20K, shown only as a drawing) conjugated on Cys 54) VH: EVQLVESGGGLVQPGGSLRLSCAASGFTFSTYAMNWVRQAPGKGLEWVGRIRSKYNNYATYYADSVKDRFTISRDDSKNSLYLQMNSLKTEDTAVYYCARHGNFGNSYVSWFAYWGQGTLVTVSS VL: QTVVTQEPSLTVSPGGTVTLTCRSSTGAVTTSNYANWVQQKPGQAPRGLIGGTCKRAPGVPARFSGSLLGDKAALTLLGAQPEDEAEYFCALWYSNLWVFGGGTKLTVL	12
